The conditions of series [1]: concentration range of 20–30 µm; peptides alone and as conjugate to ASOs; ref Neundorf et al., 2009; Shabanpoor et al., 2017; cited from earlier work. An excerpt:
We chose an FDA-approved oligonucleotide sequence (Table 1) targeting survival motor neuron-2 (SMN2) mRNA splice correction as a model ASO (in PNA chemistry) for conjugation to a previously characterized CPP derived from the receptor-binding domain of Apolipoprotein E [ApoE(133–150)] ([Meloni et al., 2020]). In order to synthesize trifunctional conjugates, three different functional moieties were selected for conjugation to the side-chain of […] that was generated during NCL of CPP-ASO. These functional moieties include the FDA-approved oligonucleotide sequence as above but incorporated in ...

Series [2] concerns SMA patient-derived fibroblasts. The experiment in a line: Confocal microscopy of Cy5 fluorescent uptake. The series is classed as cell-based, human. The note with it: 1 and 2 µm in OptiMEM without serum, 1 h at 37°C, Cy5 excitation 633 nm. Here is the method:
For fluorescent uptake studies, SMA fibroblast cells were plated at a density of 60,000 cells/well of a µ-Slide 4 Well ^Ph+ Glass Bottom chamber slides precoated with poly-L-ornithine. The cells reached 80% confluency after 24 h. They were treated with Cy5-labelled peptide-PNA conjugates made up at a concentration of 1 and 2 µm in OptiMEM without serum for 1 h at 37°C. At 15 min to the end of incubation time, Hoechst (1:1,000 dilution) was added to each well. Cells were washed with PBS and images of cells were taken using the Leica SP8 Resonant Scanning microscope with 63×/1.4 oil objective. The images were acquired at the Cy5-specific excitation of 633 nm and emission of 638–779 nm and Hoechst excitation and emission of 405 nm and 410–585 nm, respectively.

Series [3] deals with full-length SMN2 mRNA. The experiment in a line: SMN2 exon-inclusion assay (RT-qPCR of full-length SMN2 mRNA). The note with it: SMA patient-derived fibroblasts (Type-I, GM03813), conjugates 1 and 2 µm in serum-free Opti-MEM for 4 h at 37°C, then growth medium for 20 h, ∆∆Ct vs HPRT1, normalized to untreated = 1, mean ± SEM, N = 3. Format: cell-based, human. On the technique in general: Quantitative PCR measures a nucleic acid by following its amplification.

In the case of “ApoE: previously characterized CPP derived from the receptor-binding domain of Apolipoprotein E (LRVRLASHLRKLRKRLLR; UniProt P02649 151-168, looked up, fragment)”, in series [1], the cytotoxic effect result is recorded as “no significant cytotoxic effect”.
As for “Ac-LRVRLASHLRKLRKRLLR-X-G-C-X-ATTCACTTTCATAATGCTGG | Cy5 [C2, Cy5-labelled ApoE-PNA conjugate, fluorophore on the cysteine thiol of C1]”, in series [2], the “uptake in fibroblasts (Cy5 fluorescence)” value is “concentration-dependent increase in uptake”.
Regarding “Ac-LRVRLASHLRKLRKRLLR-X-G-C-X-ATTCACTTTCATAATGCTGG | Mal-ATTCACTTTCATAATGCTGG [C3, trifunctional conjugate of C1 with maleimide-PMO (SMN2) on the cysteine thiol]”, the “antisense activity (change in the level of full-length SMN2 mRNA)” value in series [3] is “higher activity compared to the peptide-PNA (C1) conjugate”.

Source of the values: PMC7962911, “Modular Synthesis of Trifunctional Peptide-oligonucleotide Conjugates via Native Chemical Ligation” (Frontiers in Chemistry, 2021).
